Measured values reported in the nanobody polyreactivity screen of Harvey et al. (2022).

Test: yeast display, Sf9 membrane polyspecificity reagent, FACS + sequencing; frameworks hold sequencing errors
How it was run: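 Synthetic nanobody libraries on Saccharomyces cerevisiae BJ5465 were galactose-induced for 36–48 hours, stained 1 hour at 4 °C with 10% biotinylated, detergent-solubilized Sf9 membrane reagent and enriched on streptavidin microbeads. FACS then separated cells into low and high (top ~1%) gates by anti-HA (expression) and streptavidin (reagent binding) fluorescence. Genes were colony-PCR amplified, MiSeq 2 × 250 sequenced and CDR-length filtered. A clone's polyreactivity label is that of its gate of origin.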

| Sequence | polyreactivity (PSR sort gate) |
| --- | --- |
| QVQLVESGGGLVQAGGSLRLSCAASGSTLDKYAMGWYRQAPGKERELVAAISSSGGSTYYADSVKGRFTISRDNAKNTVYLQMNSLKPEDTAVYYCAARFFRGRYLDDYWGQGTQVTVSS | high polyreactivity |
| QVQLVESGGGLVQAGGSRRLSCAASGSIFVSNAMGWDRQAPGKERELVAAISGGCSTYYADSVKGRFTISRDNAKNTVYLQMNSLKPEDTAVYYCNALFDGYAQDLDYDYWGQGTQVTVSS | low polyreactivity |
| QVQLVESGGGLVQAGGSLRLSCAASGSIFGGNAMGWYRQAPGKERELVATIDFSGTSTYYADSVKGRFTISRDNAKITVYLQMNSLKPEDTAVYYCAVRSGYVNRRYDYWGQGTQVTVSS | low polyreactivity |
| QVQLVESGGGLVQAGGSLRLSCAASGITFIVNTMGWYRQAPGKEREFVATISANSDGTYYADSVKGRFTISRDIAKNTVYLQKNSLKPEDTAVYYWGQGTQVTVSS | low polyreactivity |
| QVQLVESGGGLVQAGGSLRLTCAASGYTLSVNAKGWSRQAPGKEMDLVATNDFGGGSTYYADSVKGRFTISRDNAKNTVYLQMNSLKREDTAVYYCATDGGAAWGRYYWDYGYWGQGTQVTVSS | low polyreactivity |
| QVQLVESGGGLVQAGGSLRLSCAASGRTFVTYAMGWYRQAPGKERELVAAISASGGSTYYADSVKGRFTISRDNAKNTVYLQMNSLKPEDTAVYYCAKTYFLATPYGYWGQGTQVTVSS | low polyreactivity |
| QVQLVESGGGLVQAGGSLRLSCAASGSILTDNAMGWYRQAPGKERELVASITGSGGSTYYADSVKGRFTISRDNAKNTVYLQMNSLKPEDTAVYYCAASYRLRYGYWGQGTQVTVSS | high polyreactivity |
| QVQLVESGGGLLQAGGSLRLSCAASGMGWYRQAPGKERELVAAISWNGGSTYYADSVKGRFTISRDNAKNTVYLQMNSLKPEDTAVYYCAADYSTVASSLYLDSWGQGTQVTVSS | low polyreactivity |
| QVQLVESGGGLVQAGGSLRLSCAASGSTFQRYAMGWYRQAPGKERELVAAITIRGTRTYYADSVKGRFTISRDNAKNTVYLQMNSLKPEDTAVYYCAATYYWYGHPSRRYDYWGQGTQVTVSS | high polyreactivity |
| QVQLVESGGGLVQAGGSLRLSCAASGSIFVDYTMGWYRQAPGKERELVAAITYRGTRTYYADSVKGRFTISRDNAKNTVYLQMNSLKPEDTAVYYCNKLYRRYPVPREYDYWGQGTQVSVSS | high polyreactivity |
| QVQLVESGGGLVQAGGSLRLSCAASGRTFPDNAMGWYRQAPGKESEFVAAISSSGSTYYADSVKGRFTISRDNAKNTVYLQMNSLKPEDTAVYYCNRDDWPSYDFTGGDYWGQGTQVTVSS | low polyreactivity |
| QVQHVESGARLVQAGGSLRLSCAASGHIFFDYTMGWSRQAPGKERELVAGITIGGSTNYADSVKGRFTISRDNAKNTVYLQMNSLKPEDTAVYYCNVVKYVYIYSYWEYYYWGQGTQVTVSS | low polyreactivity |
| QVQLVESGGGLVQAGGSLRLTCAASGSTFHSNAMGWYREAPGKERELVAAISQGGGRTYYADSVKGRFTISRDNAKNTVYLQMNSLKPEDTAVYYCNRRTRGLIDGGMDYWGQGTQVTLSS | low polyreactivity |
| QVQLVESGGGLVQAGGSLRLSCAASGLTFVFYAMGWYRQAPGKERELVAAISRRGGRTYYADSVKGRYTISRDNAKNTVYVQMNSLKPEDTAVYYCNARVRSHRCNYWGQGTQVTVSS | high polyreactivity |
| HVQLVESGGGLVQAGGSLRLSCAASGFISVRNGMGWYRQAPGKERELVAAITGSGGSTYYADSVKGRFTISRDNAKNTVYLQMNSLKPEDTAVYYCARTYTVSRKRMGYWGQGTQVTVSS | high polyreactivity |
| QVQLVESVGGLVQAGGSLRLSCAASGRIFYPYAMGWYRQAPGKERELVAAITRGGITTYADSVYGRFTISRDNAKNTVYLQMNSLKPEDTAVYYCNAVRWYGRMDYWGQGTQVTVSS | low polyreactivity |
| QVQLVESGGGLVQAGGSLRLSCAASGNTFYRNAMGWYRQAPGKERELVAAITFSTGRTYYADSVKGRFTISRDNAKNTVYLQLNSLKPEDTAVYYCAAFYSGGDYWGQCTQVTVSS | high polyreactivity |
| QVQLVESGGGLVQAGGSLRLTCAASGLIFPRYAMGWYRQAPGKERELVAAISRRGGSTRYADSVKGRFTISRDNAKNTVYLQMNSLKPEDTAVYYCAAPDFPKYYPTAYLQADEYWGQGTQVTVSS | high polyreactivity |
| QVQLVESGGGLVQAGGSLRLSCAASGRIFDRNAMGWYRQAPGKERELVARIDPGDDTNYADSVKGRFTISRDNAKNTVYLQMNSLKAEDTAVYYCATDPDYVLYRTAYYEYDYWGQGTQVTVSS | low polyreactivity |
| QVQLVESGGGLVQAGGSLRLSCAASGRTFTYNTMGWYRQETGKQRELVAAISSSGGSTYYADSVKGRFTISRDNAKNTVYLQMNSLKPEDTAVYYCAKRYFSSSRYYYWGQGTQVTVSS | high polyreactivity |
| QVQLVESGGGLVQAGGSLRLSCAASGRTFRYNAMGWYRQAPGKERELVASIRRGGSTNYADSVKGRFTISRDNAKNTVYLQMNRLKPEDTAVYYCAAGGYYWGQGTQVTVSS | high polyreactivity |
| QVQLVESGGGLVQAGGSLRLSCAASGFIFSYYAMGWYRQAPGKERELVAAITDSGGSTYYADSVKGRFTISRDNAKNTVYLQMNSLKPEDTAVYYCAATYWWAYVWAYSHVKSTNDYWGQGTQVTVSS | low polyreactivity |

| Sequence | polyreactivity (PSR sort gate) |
| --- | --- |
| QVQLVESGGGLVQAGGSLRLSCAASGRIFTYNAMGWYRQAPGKERELVAVISRRGGSTYYADSVKGRFTSSRDNAKNPVYLQMNSLTPEDSAVYYCAADLPSYPYEYWGQGPQVTVSS | low polyreactivity |
| QVQLEESGGGLVQAGGSLRLSCAASGYTFGFYTMGWYRQAPGQERALVAGISWSGGSTYYADSVKGPFTISRDNAKNTVYLQMNSLKQEDTAVFYCAAVSTRVLVNYDSWGQGTQVTVSS | high polyreactivity |
| QVQLVESGGGLVQAGGSLRLSCAASGSTFWGNAMGWYRPAPGKERELVAAISNGGSTNYADSVKGRFTISRDNAKNTVNLQMNSLKPEDTAVYYCAADGHTSNGVSLHGYWGQGTQVTVSS | low polyreactivity |
| QVQLVESGGGLVQAGGSLRLSCAASGRTLIYNAMGWYRQAPGKERELVAAITGGGGRTYYADSVKGRFTISRDNAQNTVYLQMNSLKPEDTAVYYCAAGETFEMNYWGQGTQVTVSS | low polyreactivity |
| QVQLVESGGGLVQAGGSLRLSCAASGLIFAYNTMGWYRQAPGKERELVAGITSGGSTYYADSVKGRFTISRDNAKNTVYLQMNSLKPEDTAVYYCAAAYRTGSVSFGYWGQGTQVTVSS | high polyreactivity |
| QVQLVESGGGLDQAGGSLRLSCAASGLIFYYYALGWYRQAPGKERELVAAISSRGSSTYYADSVKGRFTISRDNAKKTVYLQMNSLKPEDTAVYYCAADSVRKYFGYDYWGQGTQVTVSS | high polyreactivity |
| QVQLVESGGGLVQAGGSLRLSCAASGSTFGYYAMGCYRQAPGKERELVAAITSGGSTKYADSVKGRFTISRDNAKNTVYLQMNSLKPEDTAVYYCATSRYFGYGFWGQGTQVTVSS | low polyreactivity |
| QVQLVESGGGLVQAGGSLRLSCAASGFAFSYYAMGWSRQAPGKEREFVASIDWSGGSTYYADSVKGRFTISRDNAKNTVYLQMNSLKPEDTAVYYCAAELDYFPGYDYWGQGTQVTVSS | low polyreactivity |
| QVQLVESGGGLVQAGGSLRLSCAASGRTLQWNAMGWYRQAPGKERELVATISSGGSTKYADSVKGRFTISRDNAKNTVYLQMNSLKPEDTAVYYCNAQPFGMYYHRYYYWGQGTQVTVSS | low polyreactivity |
| QVQLVESGGGLVQAGGSLRLSCAASGRTFYRNAMGWYRQAPGKERELVAAISRSGGRTYYADSVKGRFTISRDNAKNTVYLHMNSLKPEDTAVYYCNAQPTLAVADYDYWGQGTQVTVSS | high polyreactivity |
| QVQLEESGGGLVQAGGSLRLSCAASGRLFGDNAMGWYSQAPGKERELVAAISDSGGSTYYADSVKGRFTISRDNAKNTVYLQMNSLKPEDTAVYYCAAEYIVRWYWYYYWGQGTQVTVSS | high polyreactivity |
| QVPLVESGGGLVQAGGSLRLSCAASGSTLAGYTMGWYRQAPGKERELVAAITWSGSSTYYADSVKGRFTISRDNAKNTVYLQMNSLKPEDTAVYYCAATYYVYSGGNYLRYDSWGQGTQVTVSS | high polyreactivity |
| QVQLVESGGGLVQAGGSLRLSCAASGFTFQHNSMGWYRQAPGKERELVAAISLGGSTNYADSVKGRFTISRDNAKNSVYLQMNSLKPEDSAVYYCAAYDWRVLWGYDYWGQGTQVTVSS | low polyreactivity |
| QVQLVESGGGLVQAGGSLRLSCAASGRTSPRYAMGWYRQAPGKEREWVASISGSGGRTYYADSVKGRFTISRDNAKNTVYLQMNSLKPEDTAVYYCAASTQGNYYPYKRYDYCGQGTQVTVSS | high polyreactivity |
| QVQLVESGGGLVQAGGSLRLSCAASGRIFAFNVMGWYRQAPGKEREMVAAISTRDGSTYYADSVKGRFTISRDNAKNTVYLQMNSLIPEDTAVYYCNAVVRYYDWGYWDYDYWGQGTQVTVSS | low polyreactivity |
| QVQLVESGGGLVQAGGSLRLSCAASGSIFQVNAMGWYRQAPGKERELVAANRSGGRTTYADSVKGRFTISRDNAKNTVYLQMISLKTEDTAVYYGAAPLYYKSWTYPRLRSGYWGQGTQVTVSS | high polyreactivity |
| QVQLVESGGRLVQAGGTLRLSCAASGRIFGYNAMGWYRQAPGKERHLVAVITSGGSKNYADSVKGRFTISRDNAKHTVYLQMNSVKPEDTAVYYCPRRIWDRWSYPVRVRYYYWGQGTQVTGSS | high polyreactivity |
| QVQLVESGGGLVQAGGSLRLSCAASGFTFSTYDMGWYRQAPRKERELVAAIDYIDGSTYYADSVKGRFTISRDNAKNTVDLQMNCLKPEDTAVYYCAAHYYYDEFGYWGQGTQVTVSS | low polyreactivity |
| QVQLVESGGGLVQAGGSLRLSCAASGFIFPYYAMGWYRQAPGKERELVAAISARGGSTYYADSVKGRFTISRDNAKNTFYLQMNRLKPEDTAVYYCAAPYPRWTGKDYDYWGQGTQVTVSS | high polyreactivity |
| QVQLVESGGGLVQAGGSLRLSCAASGSTFYYNAMGWYRQAPGKERELVAAITFTGGSTYADSVKGRFSISRDNAKNTVYLQMNSLKPEDTAVYYCAATIQGHDYLGTGYDYWGQGTQVTVSS | low polyreactivity |
| QVQLVESGGGLVQAGGSLRLSCAASGRTFSWNAMGWYRQAPGKERELVAAISNSGGSTYYADSVKGRFTISRHNAKNPVYLQMNSLKPEDTAVYYCAADDIYKYYQYYAFPYYRYDYWGQGTQVTVSS | low polyreactivity |
